These results are taken from patent US20090325168A1 (ONCOIMMUNIN, published 2009).

Square brackets hold non-standard residues; d marks the D form. Ends that are not written are not given here. * marks the point of attachment. 5‑TMR = 5'-carboxytetramethylrhodamine, CN(C)c1ccc2c(-c3ccc(C(=O)*)cc3C(=O)[O-])c3ccc(=[N+](C)C)cc-3oc2c1; rhodamine X acetamide = R492, linked via the cysteine sulfhydryl; Fmoc = O=C(OCC1c2ccccc2-c2ccccc21)*; Nle = CCCC[C@H](N)C(=O)O; Aib = CC(C)(N)C(=O)O; Ahx = NCCCCCC(=O)O A value given as a limit tells only on which side of the number the result lay.

The target in assay [1] is T1, CPP32 protease (human (Jurkat cells), UniProt P42574 29-277).
T1 sequence (looked up): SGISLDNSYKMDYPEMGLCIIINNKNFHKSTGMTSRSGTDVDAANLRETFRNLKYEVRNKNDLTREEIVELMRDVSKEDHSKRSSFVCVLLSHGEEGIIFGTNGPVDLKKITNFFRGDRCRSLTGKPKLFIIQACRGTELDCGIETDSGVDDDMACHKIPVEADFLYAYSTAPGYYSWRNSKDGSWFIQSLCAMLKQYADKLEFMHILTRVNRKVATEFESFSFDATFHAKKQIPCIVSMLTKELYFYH
As to the kind of experiment: cell-based or functional assay.

In assay [2] the target is elastase. As to the kind of experiment: cell-based or functional assay.

B1: Fm-CGD2D, Fm-K[F1]DBJGDEVDGIDGJPK[F1]GY (compound 11 of Table 12) (peptide)
peptide: Fmoc-K(carboxytetramethylrhodamine)D[Aib][Ahx]GDEVDGIDG[Ahx]PK(carboxytetramethylrhodamine)GY
Consider B1, for which, in assay [1], the “increase in fluorescence intensity in anti-Fas-activated Jurkat cells (flow cytometry)” value was no more than 10 fold.

B2: D-NorFES-A protease indicator, F1-Asp-Ala-Ile-Pro-Nle-Ser-Ile-Pro-Cys-F2 (peptide)
peptide: {5‑TMR}-DAIP[Nle]SIPC(rhodamine X acetamide)
Take B2: in assay [2], the “increase in fluorescence at 589 nm after treatment with elastase” value was greater than 10 fold and the “increase in fluorescence within the first 1000 seconds of exposure to elastase” value was greater than 5 fold.
